Here are results for 9 molecules from patent publication US20110135573A1, “METALLOPROTEINASE 9 AND METALLOPROTEINASE 2 BINDING PROTEINS” (DYAX CORP., priority 2009, published 2011).

In one assay the target is T1, mouse MMP-2 (Mus musculus, UniProt P33434).
T1 construct: purchased R&D Systems 924-MP-010
As to the kind of experiment: Enzyme inhibition assay (single point inhibition, IC50/Ki,app), substrate M-2350. To be noted: for Ki: IgG, Table 12; for inhibition of mouse MMP-2 (in words): light chain shuffled antibodies. Type of assay: biochemical. On the procedure: (§1) 343 unique sFabs from the anti-MMP-9/-2 M237-D02 affinity maturation campaign were discovered by phage display, produced in small scale (6 mL cultures in deep 24-well plates) and screened to select inhibitors with sub-nanomolar potency against the human enzymes and at least single-digit nanomolar potency toward the mouse orthologues. […] Isolates which appeared potent against both human and mouse MMP-2 were then subjected to IC50 analysis against hMMP-9. Sub-nanomolar inhibitors of hMMP-9 were further tested by IC50 analysis against mMMP-9 and h/m MMP-2, if sufficient small-scale sFab material was available. Thirteen potential h/m MMP-9/-2 sFab inhibitors were then produced in medium scale (250 mL cultures in flasks) and retested for h/m MMP-9 and h/m MMP-2 inhibition. Five potential lead candidates were reformatted as IgGs and retested in enzyme inhibition assays.
(§2) Human MMP-9 (Biomol #SE-244), mouse MMP-9 (R&D Systems #909-MM-010), human MMP-2 (Biomol #SE-237) and mouse MMP-2 (R&D Systems #924-MP-010) were tested at final concentrations of 1 nM, 0.25-0.4 nM, 2.5 nM and 0.2 nM, respectively. Target enzymes were incubated with inhibitor for two hours at 30° C. in reaction buffer (50 mM Tris-HCl pH 7.5, 150 mM NaCl, 5 mM CaCl2, 0.05% Brij-35) in a total volume of 90 μL using a white 96 well plate (Costar). Reactions contained 5 μL of small-scale sFab stock solution (average concentration of 500 nM) for single point inhibition analysis or a concentration series of sFab/IgG for IC50 Ki,app determinations. Commercially available anti-MMP-9 antibodies (Millipore mAb 13415 and R&D Systems polyclonal IgG #AB911) were tested by IC50 analyses using 100 nM and 500 nM as the highest inhibitor concentrations, respectively. An anti-MMP-2 antibody (R&D Systems polyclonal IgG #AF902) was similarly tested with 200 nM as the highest inhibitor concentration. Reactions were initiated by the addition of 10 μL of a 10× concentrated stock of substrate, Mca-Lys-Pro-Leu-Gly-Leu-Dap(Dnp)-Ala-Arg-NH2, (Bachem M-2350), at final concentration of 10 μM and monitored at 30° C. in a Molecular Devices' Gemini fluorescence plate reader. The excitation and emission wavelengths were set at 328 nm and 393 nm, respectively. Kinetic data were acquired by the increase in fluorescence, and initial rates for each condition were plotted against the total inhibitor concentration. Reactions were performed in duplicates and all data replicates were plotted in a single graph and fit to the following equation^1:
(§3) Where A=initial rate observed at each inhibitor concentration; Ao=initial rate observed in the absence of inhibitor; Ainh=initial rate observed for the enzyme inhibitor complex; Inh=concentration of inhibitor; E=total enzyme concentration (treated as a floated parameter); and Ki,app=apparent equilibrium inhibition constant.

The target in assay [1] is T2, MMP-9 (Homo sapiens, UniProt P14780). In words: Binding of non-inhibiting Fabs to MMP-9 (apparent KD, dissociation t1/2, TIMP-1 competition). Conditions: Fab.
Target sequence in this assay (P14780 94-707): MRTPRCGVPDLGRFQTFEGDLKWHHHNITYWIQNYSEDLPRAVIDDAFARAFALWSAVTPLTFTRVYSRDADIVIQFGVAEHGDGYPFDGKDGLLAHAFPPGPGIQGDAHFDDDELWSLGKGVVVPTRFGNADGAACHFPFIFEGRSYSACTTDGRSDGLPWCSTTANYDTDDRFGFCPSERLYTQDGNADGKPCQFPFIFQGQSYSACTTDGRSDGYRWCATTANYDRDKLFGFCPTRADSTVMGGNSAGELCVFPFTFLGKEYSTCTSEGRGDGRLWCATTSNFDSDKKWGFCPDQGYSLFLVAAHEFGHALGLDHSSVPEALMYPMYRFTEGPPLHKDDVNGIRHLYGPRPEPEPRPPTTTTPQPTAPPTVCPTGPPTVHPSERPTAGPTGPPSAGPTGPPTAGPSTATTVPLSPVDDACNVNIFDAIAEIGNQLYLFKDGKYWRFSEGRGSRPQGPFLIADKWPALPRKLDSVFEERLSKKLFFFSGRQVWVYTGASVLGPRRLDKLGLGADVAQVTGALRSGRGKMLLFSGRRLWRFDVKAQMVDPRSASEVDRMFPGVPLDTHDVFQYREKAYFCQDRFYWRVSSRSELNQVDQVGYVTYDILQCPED
The target in assay [2] is T2, MMP-9. In words: Initial screen of sFabs/IgG1s for inhibition of MMP-9 at 1 μM. Type of assay: biochemical. On the procedure: After sequencing analysis, the phage display were converted into sFabs and then into IgG1s. Their ability to inhibit MMP-9 and other MMPs (1, 3, 7, 8, 9, 10, 12, 13, 14) was determined by usual means. Compounds were initially screened at 1 μM against MMP-9 and those compounds that inhibited MMP-9 >80% were subjected to additional screens against purified recombinant human MMP-2 (APMA activated enzyme) and other MMPs. For these additional screens, an IC50 value was determined. Ki values and specificities of the inhibitors were determined as described below.
Target sequence in this assay (P14780 94-707): as above

In the next assay the target is T3, Mouse MMP-9 (Mus musculus, UniProt P41245).
T3 construct: purchased R&D Systems 909-MM (909-MM-010)
T3 sequence (P41245 108-730): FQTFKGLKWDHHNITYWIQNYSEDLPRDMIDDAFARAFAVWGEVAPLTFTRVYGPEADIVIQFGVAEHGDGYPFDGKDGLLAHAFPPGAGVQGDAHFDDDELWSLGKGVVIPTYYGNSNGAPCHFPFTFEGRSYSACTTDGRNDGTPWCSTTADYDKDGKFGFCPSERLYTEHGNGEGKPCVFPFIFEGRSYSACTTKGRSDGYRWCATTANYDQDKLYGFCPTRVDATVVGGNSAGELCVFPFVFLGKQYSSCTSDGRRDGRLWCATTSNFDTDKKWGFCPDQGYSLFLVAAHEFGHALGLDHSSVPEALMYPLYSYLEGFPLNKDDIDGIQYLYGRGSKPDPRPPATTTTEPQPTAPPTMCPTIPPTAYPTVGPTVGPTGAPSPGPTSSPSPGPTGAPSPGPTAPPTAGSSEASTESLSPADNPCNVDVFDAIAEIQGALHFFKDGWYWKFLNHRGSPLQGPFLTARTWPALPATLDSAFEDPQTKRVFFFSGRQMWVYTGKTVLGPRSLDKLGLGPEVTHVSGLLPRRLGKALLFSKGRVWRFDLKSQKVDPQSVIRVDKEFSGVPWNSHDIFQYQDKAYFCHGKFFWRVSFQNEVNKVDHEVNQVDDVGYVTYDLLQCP
As to the kind of experiment: Enzyme inhibition assay (single point inhibition, IC50/Ki,app), substrate M-2350. The assay is classed as biochemical. Conditions: light chain shuffled antibodies. On the procedure: as §1, §2, §3

For the next assay, the target named is T4, human MMP-2 (Homo sapiens, UniProt P08253).
T4 construct: purchased Biomol SE-237
T4 sequence (P08253 110-446 limits assumed): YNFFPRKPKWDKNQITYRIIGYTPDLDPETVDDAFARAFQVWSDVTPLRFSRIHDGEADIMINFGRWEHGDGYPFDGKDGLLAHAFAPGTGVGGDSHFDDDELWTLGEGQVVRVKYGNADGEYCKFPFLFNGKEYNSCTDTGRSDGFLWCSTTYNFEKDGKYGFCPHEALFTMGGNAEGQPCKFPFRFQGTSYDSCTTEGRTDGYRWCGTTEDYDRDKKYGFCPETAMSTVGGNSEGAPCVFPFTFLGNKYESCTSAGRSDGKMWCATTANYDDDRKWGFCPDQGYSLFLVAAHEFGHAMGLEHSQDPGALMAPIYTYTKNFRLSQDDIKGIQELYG
The assay is described as above. The assay is classed as biochemical. Conditions: light chain shuffled antibodies. On the procedure: as §1, §2, §3

Assay [3] has as its target T2, MMP-9. Described as above. Details: Human MMP-9 catalytic domain (BIOMOL, SE-244); purchased BIOMOL SE-244. Type of assay: biochemical. Conditions: light chain shuffled antibodies. On the procedure:
as §1
as §2, with “Commercially available anti-MMP-9 antibodies (Millipore mAb 13415 and R&D Systems polyclonal IgG #AB911) were tested by IC50 analyses using 100 nM and 500 nM as the highest inhibitor concentrations, respectively. An anti-MMP-2 antibody (R&D Systems polyclonal IgG #AF902) was similarly tested with 200 nM as the highest inhibitor concentration.” left out, “The excitation and emission wavelengths were set at 328 nm and 393 nm, respectively.” left out, “Reactions were performed in duplicates and all data replicates were plotted in a single graph and fit to the following equation^1:” left out
Target sequence in this assay (P14780 107-444 limits assumed): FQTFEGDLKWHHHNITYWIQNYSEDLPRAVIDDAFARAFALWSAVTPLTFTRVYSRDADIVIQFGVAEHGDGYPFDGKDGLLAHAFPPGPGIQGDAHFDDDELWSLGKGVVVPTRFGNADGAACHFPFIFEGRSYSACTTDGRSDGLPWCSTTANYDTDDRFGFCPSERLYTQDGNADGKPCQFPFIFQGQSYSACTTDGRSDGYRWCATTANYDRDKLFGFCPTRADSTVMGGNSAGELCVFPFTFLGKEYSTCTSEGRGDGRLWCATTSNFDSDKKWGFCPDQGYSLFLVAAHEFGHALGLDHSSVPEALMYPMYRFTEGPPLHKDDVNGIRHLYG

T1 sequence (P33434 110-662): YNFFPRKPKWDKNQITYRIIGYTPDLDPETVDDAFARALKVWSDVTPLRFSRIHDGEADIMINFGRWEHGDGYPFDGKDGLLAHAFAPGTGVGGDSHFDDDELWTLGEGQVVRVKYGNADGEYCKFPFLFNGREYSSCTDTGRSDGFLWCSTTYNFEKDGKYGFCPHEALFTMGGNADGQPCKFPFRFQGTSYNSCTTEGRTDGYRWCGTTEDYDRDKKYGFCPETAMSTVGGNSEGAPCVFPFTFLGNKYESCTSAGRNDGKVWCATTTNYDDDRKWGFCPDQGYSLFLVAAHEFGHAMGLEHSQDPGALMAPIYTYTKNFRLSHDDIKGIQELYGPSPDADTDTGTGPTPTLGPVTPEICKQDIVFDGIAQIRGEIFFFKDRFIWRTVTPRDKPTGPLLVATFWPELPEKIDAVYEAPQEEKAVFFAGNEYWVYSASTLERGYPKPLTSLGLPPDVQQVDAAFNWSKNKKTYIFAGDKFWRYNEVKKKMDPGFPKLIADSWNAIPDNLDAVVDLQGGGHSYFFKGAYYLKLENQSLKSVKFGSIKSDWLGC

B1: X0106-E04: germlined, optimized version of M0275-D03, IgG1 (antibody, V domains shown)
VH: EVQLLESGGGLVQPGGSLRLSCAASGFTFSQYDMWWVRQAPGKGLEWVSVIYPSGTTFYADSVKGRFTISRDNSKNTLYLQMNSLRAEDTAVYYCAKDRAYGDYVGWNGFDYWGQGTLVTVSS
VL: EIVLTQSPATLSLSPGERATLSCRASQSISSFLAWYQQKPGQAPRLLIYDASYRATGIPARFSGSGSGTDFTLTISSLEPEDFAVYYCQQRGNWPITFGQGTRLEIK
Turning to B1, the Ki with mouse MMP-2 amounted to 3.9 nM.

B2: M0078-G07: Fab that binds MMP-9 but does not inhibit (antibody, V domains shown)
VH: EVQLLESGGGLVQPGGSLRLSCAASGFTFSSYTMEWVRQAPGKGLEWVSWISPSGGYTFYADSVKGRFTISRDNSKNTLYLQMNSLRAEDTALYYCARGYSYGSIDLWGRGTLVTVSS
VL: QDIQMTQSPGTLSVSPGERATLSCRASQSVSSDLAWYQHKPGQAPRLLIYGVSTKATGVPARFSGSGSGTEFTLTISSLQSEDLAVYYCQQYHNWPPLTFGGGTKVEIK
With B2, in the assay with MMP-9 [1], the “competition with TIMP-1” value is “does not compete with TIMP-1” and the “dissociation t1/2” value turned out to be 25 min. In addition, the “inhibition of the catalytic activity of MMP-9” value with MMP-9 [2] is recorded as “Neither antibody inhibits”.

B3: M0279-A03: MMP-9 specific antibody from light chain shuffling of M237-D02, sFab (antibody, V domains shown)
VH: EVQLLESGGGLVQPGGSLRLSCAASGFTFSQYPMWWVRQAPGKGLEWVSYIVPSGGRTYYADSVKGRFTISRDNSKNTLYLQMNSLRAEDTAVYYCAKDRAYGDYVGWNGFDYWGQGTLVTVSS
VL: QDIQMTQSPATLSVSPGERVTLSCKASHSISRNLAWYQQKPGQAPRLLIFGASTRATGIPARFSGSGSGTEFTLTISSLEAEDFAVYYCQQRRNWPVTFGPGTKLDFK
Take B3: the “inhibition of mouse MMP-9 (in words)” value with Mouse MMP-9 was “bind and inhibit”. Also, the “inhibition of human MMP-2 (in words)” value in the assay with human MMP-2 is “do not inhibit”. For the same molecule, the “inhibition of mouse MMP-2 (in words)” value in the assay with mouse MMP-2 is “do not inhibit”. Besides, in the assay with MMP-9 [3], the “inhibition of human MMP-9 (in words)” value is “bind and inhibit”.

B4: M0288-C08: MMP-9 specific antibody from light chain shuffling of M237-D02, sFab (antibody, V domains shown)
VH: EVQLLESGGGLVQPGGSLRLSCAASGFTFSQYPMWWVRQAPGKGLEWVSYIVPSGGRTYYADSVKGRFTISRDNSKNTLYLQMNSLRAEDTAVYYCAKDRAYGDYVGWNGFDYWGQGTLVTVSS
VL: QDIQMTQSPGTLSVSPGERVTLSCRASQSVSSYLAWYQQKPGQAPRLLIYGASTRVTGIPARFSGSGSGTEFTLTISSLQSEDFAVYYCQQRSSWPITFGQGTRLEIK
As to B4, the “inhibition of mouse MMP-9 (in words)” value with Mouse MMP-9 is “bind and inhibit”. Also, in the assay with human MMP-2, the “inhibition of human MMP-2 (in words)” value was “do not inhibit”. Moreover, the “inhibition of mouse MMP-2 (in words)” value with mouse MMP-2 is “do not inhibit”. Further, the “inhibition of human MMP-9 (in words)” value with MMP-9 [3] is “bind and inhibit”.

B5: X0106-C03: germlined, optimized version of M0274-G08, IgG1 (antibody, V domains shown)
VH: EVQLLESGGGLVQPGGSLRLSCAASGFTFSVYDMWWVRQAPGKGLEWVSVIYPSGGATYYADSVKGRFTISRDNSKNTLYLQMNSLRAEDTAVYYCAKDRAYGDYVGWNGFDYWGQGTLVTVSS
VL: EIVLTQSPATLSLSPGERATLSCRASQSISSFLAWYQQKPGQAPRLLIYDASYRATGIPARFSGSGSGTDFTLTISSLEPEDFAVYYCQQRGNWPITFGQGTRLEIK
With B5, the Ki with mouse MMP-2 is 3.2 nM.

B6: X0106-A01: germlined, optimized version of M0256-D11, IgG1 (antibody, V domains shown)
VH: EVQLLESGGGLVQPGGSLRLSCAASGFTFSHYDMWWVRQAPGKGLEWVSVIYSSGGPTFYADSVKGRFTISRDNSKNTLYLQMNSLRAEDTAVYYCAKDRAYGDYVGWNGFDYWGQGTLVTVSS
VL: EIVLTQSPATLSLSPGERATLSCRASQSISSFLAWYQQKPGQAPRLLIYDASYRATGIPARFSGSGSGTDFTLTISSLEPEDFAVYYCQQRGNWPITFGQGTRLEIK
B6: the Ki with mouse MMP-2 was found to be 4.7 nM.

B7: X0106-F05: germlined, optimized version of M0307-F04, IgG1 (antibody, V domains shown)
VH: EVQLLESGGGLVQPGGSLRLSCAASGFTFSLYDMWWVRQAPGKGLEWVSVIYSSGGYTGYADSVKGRFTISRDNSKNTLYLQMNSLRAEDTAVYYCAKDRAYGDYVGWNGFDYWGQGTLVTVSS
VL: EIVLTQSPATLSLSPGERATLSCRASQSISSFLAWYQQKPGQAPRLLIYDASYRATGIPARFSGSGSGTDFTLTISSLEPEDFAVYYCQQRGNWPITFGQGTRLEIK
Turning to B7, the Ki with mouse MMP-2 came to 3 nM.

B8: X0106-B02: germlined, optimized version of M0276-F11, IgG1 (antibody, V domains shown)
VH: EVQLLESGGGLVQPGGSLRLSCAASGFTFSWYDMWWVRQAPGKGLEWVSVIYSSGGPTFYADSVKGRFTISRDNSKNTLYLQMNSLRAEDTAVYYCAKDRAYGDYVGWNGFDYWGQGTLVTVSS
VL: EIVLTQSPATLSLSPGERATLSCRASQSISSFLAWYQQKPGQAPRLLIYDASYRATGIPARFSGSGSGTDFTLTISSLEPEDFAVYYCQQRGNWPITFGQGTRLEIK
On to B8, for which the Ki with mouse MMP-2 worked out at 4.2 nM.

B9: M0076-D03: Fab that binds MMP-9 but does not inhibit (antibody, V domains shown)
VH: EVQLLESGGGLVQPGGSLRLSCAASGFTFSLYRMNWVRQAPGKGLEWVSYIGSSGGATAYADSVKGRFTISRDNSKNTLYLQMNSLRAEDTAVYYCARGAWYLDSWGQGTLVTVSS
VL: QDIQMTQSPSSLSASVGDRVTITCRASQGIRNDLDWYQQKPGTAPKRLIYSASNLQSGVPSRFSGSGSGTEFTLTISNLQPEDLATYFCLQHNSFPLTFGQGTKVEIK
For the molecule B9, in the assay with MMP-9 [1], the “competition with TIMP-1” value is “does not compete with TIMP-1” and the “dissociation t1/2” value was determined as 33 min. Further, the “inhibition of the catalytic activity of MMP-9” value with MMP-9 [2] was “Neither antibody inhibits”.
